In the supplement of paper PMC10567573:

B1: EDARADD (parent)
chain: VEKVLRRWVDEEWPKRERGDPSRH

Variants of: B1
Assay: protein stability index of a GFP-peptide fusion (GPS, HEK-293T) (PSI 1-6); higher = more stable
Conditions: c terminus: a fixed tail appended
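Note: lentivirally expressed fusions sorted by FACS into six bins by GFP to DsRed ratio, PSI derived from sequencing read proportions per bin multiplied by bin number.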

Protein stability index: each site, then its substitutions
E2: T 2.24, S 2.46, W 2.05, L 1.39, N 3.23, R 2.53, I 1.72, K 1.24, P 2.94, Q 2.51, C 2.3, Y 1.89, A 2.61, D 2.9, H 2.37, F 1.45
R6: T 3.84, P 5.27, G 3.12, A 3.88, S 3.6, M 3.14, I 2.47, C 3.06, D 4.34, E 3.72, L 2.57, W 3.38, Y 3.13, K 3.86, N 3.94, Q 3.79, F 2.76
G19: C 2.52, H 3.06, L 2.37, N 2.41, E 3.14, D 3.1, I 2.6, F 2.05, M 2.54, K 2.79
D10: G 3.39, R 2.62, K 2.4, A 2.53, P 3.4, L 3.29, H 2.44, Q 2.73, N 2.71, C 2.69, T 2.74, M 2.26, F 2.81, S 3.4, V 2.47, I 2.65, Y 2.59, W 2.88
R16: N 3.62, A 3.55, M 2.7, C 2.67, I 3.77, D 2.83, E 3.66, K 2.48, Y 2.14, P 3, S 2.58, L 2.69, T 3.46, Q 2.1, V 2.49, F 2.46
P14: M 2.62, Y 2.32, G 2.22, C 3.5, W 2.38, K 2.82, R 3.06, E 2.05, F 2.14, D 2.39, V 2.92, L 2.13, S 2.59, N 2.8, A 2.31, T 2.49
V4: E 4.41, C 2.62, P 3.71, T 3.08, F 1.97, Y 2.5, N 4.2, M 2.67, D 4.08, A 2.89, S 4.21, R 3.42, W 3.53, H 3.6, I 2.69, Q 2.76, L 2.2, K 3.06
E17: H 3.27, M 2.97, G 3.32, T 2.45, P 1.68, N 2.84, W 1.83, S 2.44, K 2.96, Q 2.99, A 3.43, R 2.85, V 1.96, I 2.19, F 2.01, C 2.26, D 3.53, Y 2.55, L 2.7
L5: Q 2.78, V 3.23, W 2.98, F 3.25, C 2.71, D 4.57, H 4.26, S 2.8, G 4.19, R 1.99, T 3.98, A 4.3, I 2.96, P 4.07, M 3.3, K 2.96, E 4.5, N 3.94, Y 2.34
E11: Q 3.05, D 3.28, T 2.61, C 2.43, I 2.7, A 2.73, R 1.59, K 2.08, M 1.74, V 1.88, F 2.16, N 3.19, W 1.96, Y 2.09, H 2.44, S 2.71, G 3.1, P 2.2
